Laboratory results reported in article doi:10.1101/2021.01.21.427566, “Gradual opening of Smc arms in prokaryotic condensin” (bioRxiv, 2021).

Molecular target: the molecule itself
Assay: EPR-DEER; MTSL-labelled single-cysteine Smc, 5 µM, mixed with ScpA and ScpB (similar trends without ScpAB); apo, or with 1 mM ATP and 10 µM dsDNA40; 50 mM Tris-HCl pH 7.5, 50 mM NaCl, 2 mM MgCl2, 40 % ethylene glycol-d6, 90 % deuterium oxide; shock-frozen, DEER traces at 50 K, Q band; spin-spin distances between the two Smc of a dimer

B1: Smc^3S(D193C) (natural protein, B. subtilis, UniProt P51834 1-1186, looked up)
chain: MFLKRLDVIGFKSFAERISVDFVKGVTAVVGPNGSGKSNITDAIRWVLGEQSARSLRGGKMEDIIFAGSDSRKRLNLAEVTLTLDNDDHFLPIDFHEVSVTRRVYRSGESEFLINNQPSRLKDIIDLFMDSGLGKEAFSIISQGKVEEILSSKAEDRRSIFEEAAGVLKYKTRKKKAENKLFETQDNLNRVECILHELEGQVEPLKIQASIAKDYLEKKKELEHVEIALTAYDIEELHGKWSTLKEKVQMAKEEELAESSAISAKEAKIEDTRDKIQALDESVDELQQVLLVTSEELEKLEGRKEVLKERKKNAVQNQEQLEEAIVQFQQKETVLKEELSKQEAVFETLQAEVKQLRAQVKEKQQALSLHNENVEEKIEQLKSDYFELLNSQASIRNELQLLDDQMSQSAVTLQRLADNNEKHLQERHDISARKAASETEFARIEQEIHSQVGAYRDMQTKYEQKKRQYEKNESALYQAYQYVQQARSKKDMLETMQGDFSGFYQGVKEVLKAKERLGGIRGAVLELISTEQKYETAIEIALGASAQHVVTDDEQSARKAIQYLKQNSFGRATFLPLSVIRDRQLQSRDAETAARHSSFLGVASELVTFDPAYRSVIQNLLGTVLITEDLKGANELAKLLGHRYRIVTLEGDVVNPGGSMTGGAVKKKNNSLLGRSRELEDVTKRLAEMEEKTALLEQEVKTLKHSIQDMEKKLADLRETGEGLRLKQQDVKGQLYELQVAEKNINTHLELYDQEKSALSESDEERKVRKRKLEEELSAVSEKMKQLEEDIDRLTKQKQTQSSTKESLSNELTELKIAAAKKEQASKGEEDNLARLKKELTETELALKEAKEDLSFLTSEMSSSTSGEEKLEEAAKHKLNDKTKTIELIALRRDQRIKLQHGLDTYERELKEMKRLYKQKTTLLKDEEVKLGRMEVELDNLLQYLREEYSLSFEGAKEKYQLETDPEEARKRVKLIKLAIEELGTVNLGSIDEFERVNERYKFLSEQKEDLTEAKNTLFQVIEEMDEEMTKRFNDTFVQIRSHFDQVFRSLFGGGRAELRLTDPNDLLHSGVEIIAQPPGKKLQNLNLLSGGERALTAIALLFSILKVRPVPFCVLDEVEAALDEANVFRFAQYLKKYSSDTQFIVITHRKGTMEEADVLYGVTMQESGVSKVISVKLEETKEFVQ
modifications: MTSL spin label on the engineered cysteine 193
notes: Smc, Bacillus subtilis (Bsu), cysteine-lite Smc^3S background with D193C, without E1118Q; also called wild-type Smc (without E1118Q) with D193C; wt Smc; source: E. coli BL21-Gold (DE3), purified (HiTrap Blue, Heparin, gel filtration)
binding result: binds
